US20030108957A1

Key:
[1] = biological target: guanyl-nucleotide binding protein Ras (21 kDa); assay: competition fluorescence polarization: 4 µM Ras (negative control) preincubated with 4 µM unlabeled pyrrhocoricin, then 1 nM fluorescein-K-pyrrhocoricin; used as the correction for the DnaK and GroEL readings
[2] = biological target: guanyl-nucleotide binding protein Ras (21 kDa); assay: competition fluorescence polarization: 4 µM Ras (negative control) preincubated with 8 µM unlabeled pyrrhocoricin, then 1 nM fluorescein-K-pyrrhocoricin; used as the correction for the DnaK and GroEL readings
[3] = biological target: GroEL (E. coli) (UniProt P0A6F5)

| decrease of the millipolarization reading after preincubation (millipolarization units) [1] | decrease of the millipolarization reading after preincubation (millipolarization units) [2] | Substance | millipolarization over the background [3] |
| --- | --- | --- | --- |
| 16 | 27 | pyrrhocoricin (unlabeled, all L-amino acids, without sugar) (peptide) | – |
| – | – | fluorescein-labeled β-tubulin fragment aa434-445 (peptide) | 50% |
